In the nanobody polyreactivity screen of Harvey et al. (2022):

Test: yeast display, Sf9 membrane polyspecificity reagent, FACS + sequencing; frameworks hold sequencing errors
Procedure, shortened: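 In a synthetic yeast display library (Saccharomyces cerevisiae BJ5465), nanobody expression was induced with galactose for 36–48 hours. FACS gates were set low and high (top ~1%) using anti-HA fluorescence for expression and streptavidin fluorescence for binding of the Sf9 membrane reagent. Each polyreactivity label is drawn from the gate of origin.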

**Q.** For “QVQLVESGGGLVQAGGSLRLTCAASGRTFYVNAMGWYRQAPGKEREFVAAISRRGGSTYYADSVKGRFTISRDNAKNTVYLQMNCLKPEDTAVYYCNAAYSSRYDYWGQGTQVTVSS”, which “polyreactivity (PSR sort gate)” value is on record?
**A.** high polyreactivity

**Q.** For “QVQLVESGGGLVQAGGSLRLTCAASGSIFDYYAMGWYRQAHGKERELVAAISDSGSTYYADSVKGRFTISRDNAKNTVYVQMNSLKAEDTAVYYCAAVLWSPYRSEPLDTYEYWGQGTQVTVSS”, which “polyreactivity (PSR sort gate)” value is on record?
**A.** low polyreactivity

**Q.** For “QVQLVESGGGLVQAGGSLRLTCAASGSIFGPNTMGWYRQAPGKERELVAAIRCGGSTNYADSVKWRFTISRDNAKNTVYLQMNSLKPDDTAVYYCIATWNLFPGVLDRYVYWGQGTQVTVSS”, which “polyreactivity (PSR sort gate)” value is on record?
**A.** low polyreactivity

**Q.** With “QVQLVESGGGLVQAGGSLRLTCAASGSIFHGNDMGWYRQAPGKETELVATISSGGSTYYADSVKGRFTSSRDNAKTTVYLQMNSLKPEDTAVYYCAAERFWPYKSYYWGQGTQVTVSS” as the sequence, how does the “polyreactivity (PSR sort gate)” value read?
**A.** low polyreactivity

**Q.** Which “polyreactivity (PSR sort gate)” value does the source give for “QVQLVESGGGLVQAGGSLRLTCAASGSIFPDNAMAWYRQAPGNERELVAAITSSGGSTYYADSVKGRLRISRDNAKNTVYLQMNSLKPADSAVYYCAKGRSYSVAKRRLYKYWGQGTEVTVSS” here?
**A.** high polyreactivity

**Q.** With “QVQLVESGGGLVQAGGSLRLTCAASGSIFRINAMGWYRQEPGKEREFVAVITSRTGNTYYADSVKGRFTISRDNAKNTVYLQMNSLKPEDTAVYYCAADYPPARWEMEYWGQGTQVTVSS” as the sequence, how does the “polyreactivity (PSR sort gate)” value read?
**A.** low polyreactivity

**Q.** With “QVQLVESGGGLVQAGGSLRLTCAASGSIFRYYAMGWYRQAPGKERELVAAISSNGGSTYYADSVKGRFTISRDNAKNTVYLQMNSLKPEDTAVYYCAALFRRAPGYYWGQGTQVTVSS” as the sequence, how does the “polyreactivity (PSR sort gate)” value read?
**A.** high polyreactivity

**Q.** For “QVQLVESGGGLVQAGGSLRLTCAASGSIFSRYAMGWYRQAPGKERELVAAISQRAGSTYYADSVKGRFTISRDNAKNTVYLQMNSLKPEDTAVYYCAARRRGRKERGEDYWGQGTQVTVSS”, which “polyreactivity (PSR sort gate)” value is on record?
**A.** high polyreactivity

**Q.** For “QVQLVESGGGLVQAGGSLRLTCAASGSIFTGYAMRCYRQAPGTERELVAAIRTRGGSPYYADSVKGRFTISRDNAKNTVYLQMNSLKPEDTALYYCAKRYYGWYGNFDYWGQGTQVTVSS”, which “polyreactivity (PSR sort gate)” value is on record?
**A.** high polyreactivity

**Q.** For “QVQLVESGGGLVQAGGSLRLTCAASGSIFYRNAMGWYRQAPGKERELVAAISTDGSTNYADSVKGRFTISRDNAKNTVYLHMNSLIPEDTAVSYCAAPWTQILDYWGQGTQVTVSS”, which “polyreactivity (PSR sort gate)” value is on record?
**A.** low polyreactivity

**Q.** With “QVQLVESGGGLVQAGGSLRLTCAASGSIIKRNAMGWYRQAPGKERELVASISSGGSTKYADSVKGRFTISRDNAKTTVYLQMNSLKPEDTAVYYCPKRSSQTRRAYDYWGQGTQVTVSS” as the sequence, how does the “polyreactivity (PSR sort gate)” value read?
**A.** low polyreactivity

**Q.** For “QVQLVESGGGLVQAGGSLRLTCAASGSILYTYAMGWYRQAPGKERELVAAISRGGGSTYYADSVKGRFTISRDNAKNTVYLQMNSLKPEDTAVYYCAARKLTRGTGRDDEYWGQGTQVTVSS”, which “polyreactivity (PSR sort gate)” value is on record?
**A.** high polyreactivity

**Q.** For “QVQLVESGGGLVQAGGSLRLTCAASGSTFAWYAMGWYRQAPGKERELVAAISRTGRTYYADSVKGRFTISRDNAKNTVYLQMNSLKPEDTAVYYCAARIERFYRDQRYDYWGQGTQVTVSS”, which “polyreactivity (PSR sort gate)” value is on record?
**A.** high polyreactivity

**Q.** For “QVQLVESGGGLVQAGGSLRLTCAASGSTFDLNAMGWYRQSPGKERELVARISSVGSTNYADSVKGRFTISRDNAKNSVYLQMNSLKPEDTAVYYCNAGFWDLYDYWGQGTQVTVSS”, which “polyreactivity (PSR sort gate)” value is on record?
**A.** low polyreactivity

**Q.** With “QVQLVESGGGLVQAGGSLRLTCAASGSTFIRNTMGWYRQAPGKERELVAAISRSGVRTYYADSVKGRFTISRDNAKNTVYLQMNSLKPEDTAVYYCNVLRYRLWGQGTQVTVSS” as the sequence, how does the “polyreactivity (PSR sort gate)” value read?
**A.** high polyreactivity

**Q.** Which “polyreactivity (PSR sort gate)” value does the source give for “QVQLVESGGGLVQAGGSLRLTCAASGSTFKYYAMGWYRQAPGKERELVAAINQSGGNTFYAESVKGRFTISRDNAKNSVSLQINSLKPEDTAVYYCAADYYFYTIVSSEMDYWGQGSQVTVSS” here?
**A.** high polyreactivity

**Q.** With “QVQLVESGGGLVQAGGSLRLTCAASGSTFLYYAMGWSREGPGNERELVATITHGGATNYADSVKGRFTISRDNAKNTVYLELNSLIPDDTAVYYCATDSYHYSYGYASLPEYDYWGHGTQVTVSS” as the sequence, how does the “polyreactivity (PSR sort gate)” value read?
**A.** low polyreactivity
